Measurements: patent US9051392 (dated 2015)
Positions count from the first letter of the chain named. In names and notes the source's numbering stands.

T1: Fas Pt 2 (deletion 52-96) (human, UniProt P25445)
T1 chain: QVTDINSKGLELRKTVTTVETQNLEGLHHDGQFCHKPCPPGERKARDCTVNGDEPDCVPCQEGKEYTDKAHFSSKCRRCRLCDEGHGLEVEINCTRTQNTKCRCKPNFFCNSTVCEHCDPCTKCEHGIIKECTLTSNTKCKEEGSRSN

T2: HA-Fas 1-210:GFP (human, UniProt P25445)
T2 chain: T1 chain

T3: p60ΔCD-GFP-HA (human, UniProt P19438)
T3 chain: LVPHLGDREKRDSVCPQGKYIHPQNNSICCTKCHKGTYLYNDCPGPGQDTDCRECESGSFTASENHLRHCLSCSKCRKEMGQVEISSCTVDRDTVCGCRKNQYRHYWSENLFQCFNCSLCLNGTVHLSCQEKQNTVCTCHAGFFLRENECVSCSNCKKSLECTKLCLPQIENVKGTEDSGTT

T4: Fas (human, UniProt P25445)
T4 chain: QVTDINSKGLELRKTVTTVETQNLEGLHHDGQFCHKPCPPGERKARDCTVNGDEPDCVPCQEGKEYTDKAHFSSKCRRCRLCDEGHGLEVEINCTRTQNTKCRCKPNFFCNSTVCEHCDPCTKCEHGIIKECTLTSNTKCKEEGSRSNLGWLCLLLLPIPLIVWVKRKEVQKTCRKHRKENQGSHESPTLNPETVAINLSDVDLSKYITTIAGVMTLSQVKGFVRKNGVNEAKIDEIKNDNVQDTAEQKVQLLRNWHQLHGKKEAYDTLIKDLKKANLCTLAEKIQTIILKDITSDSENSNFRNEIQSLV

B1: Fas ligand (trimerized) (protein)
chain: PSPPPEKKELRKVAHLTGKSNSRSMPLEWEDTYGIVLLSGVKYKKGGLVINETGLYFVYSKVYFRGQSCNNLPLSHKVYMRNSKYPQDLVMMEGKMMSYCTTGQMWARSSYLGAVFNLTSADHLYVNVSELSLVNFEESQTFFGLYKL
B2: Fas deletion 1-43 (protein)
chain: T1 chain
B3: Fas deletion 1-66 (protein)
chain: T1 chain
B4: p60ΔCD K32A (protein)
chain: T3 chain with K32A
B5: p60ΔCD KY19/20AA (protein)
chain: T3 chain with K19A, Y20A
B6: HVEMΔCD:GFP (protein)
chain: LPSCKEDEYPVGSECCPKCSPGYRVKEACGELTGTVCEPCPPGTYIAHLNGLSKCLQCQMCDPAMGLRASRNCSRTENAVCGCSPGHFCIVQDGDHCAACRAYATSSPGQRVQKGGTESQDTLCQNCPPGTFSPNGTLEECQHQTKCSWLVTKAGAGTSSSHWV

Tests used:
[1] = target: T1, Fas Pt 2 (deletion 52-96); assay: FACS
[2] = target: B3; assay: FACS
[3] = target: T2, HA-Fas 1-210:GFP; assay: other (co-immunoprecipitation)
[4] = target: T3, p60ΔCD-GFP-HA; assay: other (co-immunoprecipitation)
[5] = target: T4, Fas; assay: other (co-immunoprecipitation)

Row | binding result [3] | binding result [4] | Binder | also measured
1 |  |  | B1 | binding result [1]: no binding; binding result [2]: no binding
2 | no binding |  | B2 | 
3 | no binding |  | B3 | 
4 |  | no binding | B4 | 
5 |  | no binding | B5 | 
6 |  |  | B6 | binding result [5]: no binding
